The Human Domainome abundance scans (Beltran et al. 2025)
± gives the uncertainty stated by the source.

B1: Protein S100-G, residues 1 to 79; numbered along this chain, P02633 (parent)
chain: MSAKKSPEELKGIFEKYAAKEGDPNQLSKEELKLLLQTEFPSLLKGPSTLDELFEELDKNGDGEVSFEEFQVLVKKISQ

Variants of: B1
Experiment: abundance fitness (aPCA) (normalised: wild type 0, dead -1); higher = more abundant; growth selection in yeast, the domain comes from the species named
Conditions: Bos taurus

Abundance fitness, by site and new letter:
V65: A -0.091 ± 0.07; T 0.037 ± 0.067; S -0.109 ± 0.061; R -0.165 ± 0.064; C -0.05 ± 0.078; N -0.2 ± 0.094; I 0.007 ± 0.088; M 0.025 ± 0.078; G -0.37 ± 0.071; K -0.171 ± 0.081; P -0.34 ± 0.073; Q -0.165 ± 0.077; L 0.044 ± 0.059; W -0.018 ± 0.074; D -0.86 ± 0.11; F -0.002 ± 0.083
K59: R -0.003 ± 0.062; Y -0.079 ± 0.087; M 0.085 ± 0.08; V 0.087 ± 0.067; Q -0.009 ± 0.075; N 0.009 ± 0.08; T 0.007 ± 0.069; S 0.009 ± 0.061; W 0.065 ± 0.085
E69: Q 0.016 ± 0.08; F -0.215 ± 0.1; A -0.04 ± 0.08; M 0.022 ± 0.091; K -0.016 ± 0.099; I -0.055 ± 0.094; L -0.006 ± 0.061; W -0.253 ± 0.085; N -0.215 ± 0.1; S -0.07 ± 0.068; V -0.021 ± 0.083; R -0.056 ± 0.07; D 0.009 ± 0.11; T -0.013 ± 0.077; H -0.007 ± 0.079; C -0.074 ± 0.084; G 0.06 ± 0.086
V74: G -0.023 ± 0.071; I 0.066 ± 0.067; M 0.016 ± 0.072; T 0.024 ± 0.063; R -0.245 ± 0.061; N -0.001 ± 0.071; D -0.044 ± 0.083; K 0.041 ± 0.078; W 0.063 ± 0.082; E -0.004 ± 0.092; L -0.018 ± 0.054; S 0 ± 0.057; Q 0.102 ± 0.071; C -0.069 ± 0.077
D62: S 0.043 ± 0.062; V -0.027 ± 0.065; P -0.027 ± 0.074; I -0.097 ± 0.076; T -0.044 ± 0.067; K 0.004 ± 0.078; F -0.138 ± 0.076; L -0.042 ± 0.059; H -0.045 ± 0.069; Y -0.193 ± 0.078; A -0.009 ± 0.069; G -0.032 ± 0.077; E 0.058 ± 0.078; R -0.003 ± 0.065; W -0.168 ± 0.088
G63: C -0.04 ± 0.09; L -0.13 ± 0.064; H 0.093 ± 0.086; D -0.005 ± 0.094; R -0.029 ± 0.069; P -0.036 ± 0.08; F -0.124 ± 0.093; M -0.019 ± 0.08; S -0.06 ± 0.065; N -0.082 ± 0.1; K -0.017 ± 0.091; V -0.079 ± 0.07; E 0.118 ± 0.096; A -0.009 ± 0.08; Y 0.002 ± 0.12
K76: N -0.196 ± 0.076; G 0.011 ± 0.091; Y -0.325 ± 0.076; T -0.175 ± 0.064; S -0.119 ± 0.061; H -0.153 ± 0.072; P -0.238 ± 0.066; L -0.247 ± 0.059; W -0.293 ± 0.097; Q -0.056 ± 0.079; V -0.191 ± 0.071; C -0.29 ± 0.089; M -0.218 ± 0.087; R -0.094 ± 0.071; D -0.127 ± 0.088; E -0.126 ± 0.1; I -0.131 ± 0.074
Q71: I -0.054 ± 0.077; A -0.031 ± 0.073; W -0.244 ± 0.092; L 0.031 ± 0.064; G 0.009 ± 0.08; C -0.101 ± 0.089; S 0.017 ± 0.066; H -0.029 ± 0.078; F -0.107 ± 0.085; N -0.06 ± 0.082; T -0.031 ± 0.072; M -0.032 ± 0.088; R -0.091 ± 0.071; P -0.25 ± 0.072; K -0.074 ± 0.097; E 0.068 ± 0.098; D -0.038 ± 0.087; Y -0.168 ± 0.087; V -0.058 ± 0.073
F67: I -0.161 ± 0.084; N -0.131 ± 0.086; T -0.201 ± 0.07; W -0.038 ± 0.071; G -0.175 ± 0.063; R -0.141 ± 0.06; H -0.12 ± 0.094; L -0.059 ± 0.06; A -0.123 ± 0.067; D -0.294 ± 0.084; E -0.063 ± 0.077; M -0.176 ± 0.072; P -0.257 ± 0.077; S -0.097 ± 0.065; K -0.172 ± 0.075; C -0.05 ± 0.079; V -0.059 ± 0.061; Y -0.022 ± 0.087; Q 0.04 ± 0.079
I77: N -0.025 ± 0.084; S -0.165 ± 0.064; F 0.051 ± 0.084; H -0.155 ± 0.068; V -0.158 ± 0.077; E -0.142 ± 0.1; Q -0.092 ± 0.066; W -0.176 ± 0.086; C -0.136 ± 0.11; R -0.179 ± 0.065; M -0.143 ± 0.075; T -0.14 ± 0.064; D -0.17 ± 0.11; A -0.169 ± 0.076; K -0.148 ± 0.083; L -0.073 ± 0.058; Y -0.104 ± 0.073; G -0.111 ± 0.089
S78: G -0.329 ± 0.47; M -0.049 ± 0.44; P 0.258 ± 0.41; L -0.188 ± 0.28; A 0.245 ± 0.41; Y -1.23 ± 0.41; F -0.25 ± 0.27
Q79: E 0.272 ± 0.15
